Results reported in patent US8673579B2, “Peptide probes for diagnostics and therapeutics” (priority 2006, dated 2014).
pyrene = pyrene fluorescent label

Tests used:
[1] = Circular dichroism secondary structure calculation; format: physicochemical; settings: circular dichroism in 30% TFE/Tris, CDPRO deconvolution
Aβ40 = Aβ40 (Homo sapiens, UniProt P05067); assay: Pyrene-labeled peptide probe fluorescence with structural forms of Aβ40; format: binding
From the text: (§1) A peptide probe specific for Aβ (SEQ ID NO:36) is used to detect specific structural forms of Aβ40 and Aβ42. The peptide probe is labeled at each terminus with pyrene. The peptide probe is contacted with different samples comprising Aβ42 oligomers, Aβ40 oligomers, and Aβ40 monomers.
(§2) Interaction between the peptide probe and sample is detected by excitation at 350 nm and scanning fluorescence from 360 to 600 nm. […] FIG. 11A (fibers and monomer) & 11B (oligomers).

Aβ42 = Aβ42 (Homo sapiens, UniProt P05067); assay: Pyrene-labeled peptide probe fluorescence with structural forms of Aβ42; format: binding
Chain of Aβ42 (P05067 672-713): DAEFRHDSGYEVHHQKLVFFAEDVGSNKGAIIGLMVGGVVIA
From the text: as §1, §2

[2] = system: Aβ40 and Aβ42 in human cerebrospinal fluid (CSF); assay: Detection of Aβ in human CSF samples (excimer/monomer fluorescence ratio); format: binding; settings: 40 μL CSF, 2 μM dipyrene-labeled probe, 1 hour; ratio 430-530 nm over 370-385 nm
From the text: A peptide probe specific for Aβ (SEQ ID NO:36) is used to detect Aβ40 and Aβ42 in samples of human cerebrospinal fluid (CSF) obtained from Alzheimer's patients and from age-matched healthy patients. […] The data is presented in FIG. 12 as the ratio of the […] region (430-530 nm) over the monomeric region (370-385 nm). […] FIG. 12A presents the data for each patient, while FIG. 12B presents the average data for each patient group.

[3] = system: Aβ40 and Aβ42 in human serum; assay: Detection of Aβ in human serum with immobilized biotinylated peptide probe; format: binding; settings: 200 μL serum; biotinylated probe on streptavidin magnetic beads, then 2 μM dipyrene-labeled probe 3-5 hours
Protocol: Biotinylated peptide probe is immobilized to Dynal magnetic beads coated with streptavidin. These beads are incubated directly with the serum samples for 1 hour, then the magnetic beads and the captured material are pulled down to remove the serum samples.

Aβ plaques [4] = biological target: T1, Aβ plaques (Homo sapiens, UniProt P05067); assay: In vitro staining of brain sections from hAPP751SL transgenic mice; format: binding
T1 sequence (P05067 672-713 limits assumed): as the sequence (P05067 672-713) above
Protocol: The following illustrates the ability of peptide probes to target Aβ plaques (e.g., insoluble self-aggregates of Aβ protein associated with Alzheimer's disease) both in vitro and in vivo. A peptide probe specific for Aβ (SEQ ID NO:36) and labeled at each terminus with pyrene is used.
In vitro studies are carried out on brain sections from transgenic mice over-expressing human APP751 with London and Swedish mutations (hAPP751SL). This protein is an Aβ mutant that forms neuritic plaques in the transgenic mice. Tissue from non-transgenic littermate mice served as control tissue.
Two different types of tissue slices are evaluated: cyro-cut (frozen and sliced) and paraffin embedded and sliced. The peptide probe is incubated on the brain slices and binding of the peptide probe to the brain, and to the amyloid deposits/plaques in particular, are qualitatively evaluated. For reference purposes, consecutive slices are immunohistochemically stained with an anti-Aβ antibody, the 6E10 antibody or Thioflavin S. The use of anti-Aβ controls confirms the specificity of the staining on neuritic plaques.
Images are recorded on a Nikon E800 microscope with a mounted PixelFly camera. For tiled image recordings, the microscope is equipped with a StagePro software controlled automatic table. Images of peptide probe staining and antibody and ThioflavinS staining, respectively, are overlaid in Adobe Photo Shop software
In the latter samples, cells from the neuronal layer of the hippocampus are marked, as are brain tissue around plaques in the cortex. Thus, the quality of the stain may be better on paraffin sections.

Aβ plaques [5] = biological target: T1, Aβ plaques
PrP^Sc [6] = biological target: T2, PrP^Sc (Mesocricetus auratus, UniProt P04273)
T2 sequence (P04273 23-231 limits assumed): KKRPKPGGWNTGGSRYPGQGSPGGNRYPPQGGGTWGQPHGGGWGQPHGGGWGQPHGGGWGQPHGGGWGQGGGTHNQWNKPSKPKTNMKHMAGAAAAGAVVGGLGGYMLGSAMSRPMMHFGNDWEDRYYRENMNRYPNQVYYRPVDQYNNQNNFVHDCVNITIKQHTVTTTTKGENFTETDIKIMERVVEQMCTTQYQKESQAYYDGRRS

PrP^Sc [7] = biological target: T2, PrP^Sc; remark: listed apart in the source
PrP^Sc [8] = biological target: T3, PrP^Sc (Ovis aries, UniProt P23907)
T3 sequence (P23907 25-233 limits assumed): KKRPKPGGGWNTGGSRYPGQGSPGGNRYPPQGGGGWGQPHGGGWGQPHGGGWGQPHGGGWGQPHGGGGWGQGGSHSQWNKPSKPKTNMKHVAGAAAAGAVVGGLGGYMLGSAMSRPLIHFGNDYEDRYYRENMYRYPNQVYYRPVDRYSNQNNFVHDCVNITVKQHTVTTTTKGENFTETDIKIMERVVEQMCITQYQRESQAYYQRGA

PrP^Sc [9] = biological target: T3, PrP^Sc; remark: listed apart in the source
[10] = general statement in description
[11] = probe labeled at each terminus with pyrene, excitation 350 nm, scan 360 to 600 nm
[12] = intranasal labeled peptide probe

Chain of Aβ40 (P05067 672-711): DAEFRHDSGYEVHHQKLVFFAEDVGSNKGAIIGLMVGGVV

Aβ40 fibers: fibers of Aβ40 amyloid beta protein used as sample
turn/unordered structure [1]: 35.9%
α helix structure [1]: 5.6%
β strand (sheet) structure [1]: 58.4%

Aβ42 fibers: fibers of Aβ42 amyloid beta protein used as sample
turn/unordered structure [1]: 27.2%
α helix structure [1]: 12.6%
β strand (sheet) structure [1]: 60.2%

KLVFFAEDVGSNKGAIIGLM [SEQ ID NO:36]
turn/unordered structure [1]: 55.5%
α helix structure [1]: 19.4%
β strand (sheet) structure [1]: 25.1%
specific reaction with Aβ40 monomers (Aβ40; [10]): do not specifically react
specific reaction with Aβ40 oligomers (Aβ40; [10]): specifically react
dose-dependent reaction with Aβ40 fibers (Aβ40; [11]): reacts
dose-dependent reaction with Aβ40 monomer (Aβ40; [11]): dose not react
dose-dependent reaction with Aβ40 oligomers (Aβ40; [11]): reacts
specific reaction with Aβ42 monomers (Aβ42; [10]): do not specifically react
specific reaction with Aβ42 oligomers (Aβ42; [10]): specifically react
dose-dependent reaction with Aβ42 fibers (Aβ42; [11]): reacts
dose-dependent reaction with Aβ42 oligomers (Aβ42; [11]): reacts
stratification of Alzheimer's patients from age-matched healthy patients [2]: able to stratify
stratification of Alzheimer's patients from age-matched healthy patients [3]: able to stratify
staining of human amyloid peptide bearing blood vessels (Aβ plaques [4]; hAPP751SL transgenic brain slices): specifically stained
plaque specificity of staining, paraffin versus cryo-cut slices (Aβ plaques [4]; overlay with antibody staining of consecutive slices): staining on paraffin slices is more specific to plaques than staining on cryo-cut slices
staining of plaques on brain slices (Aβ plaques [4]; paraffin or cryo-cut slices, dipyrene-labeled probe): plaque-specific staining is apparent
binding in brain of hAPP751SL transgenic mice (Aβ plaques [5]; [12]): binds to the amyloid and agglomerates outside the blood vessel in the brain
distribution and binding in brain of nontransgenic mice (Aβ plaques [5]; [12]): reaches the olfactory bulb, but does not bind to a specifiable morphological structure
crossing of the blood-brain barrier (BBB) (Aβ plaques [5]; mouse, in vivo): crosses the blood-brain barrier

VVAGAAAAGAVHKMNTKPKMKHVAGAAAAGAVV [SEQ ID NO:43]
reactivity with smaller versus larger PrP^Sc aggregates (PrP^Sc [6]): reacts with smaller PrP^Sc aggregates over larger PrP^Sc aggregates
reactivity after sonication of samples (PrP^Sc [7]): increased reactivity
effect of sample sonication on signal-to-noise (PrP^Sc [8]): improved the signal-to-noise ration
reactivity with PrP^Sc in sera from infected sheep (PrP^Sc [8]): reacted
reactivity with sera from normal sheep (PrP^Sc [8]): did not react
sensitivity (PrP^Sc [8]): 100%
specificity (PrP^Sc [8]): 100%
relative reactivity with sheep blood components (PrP^Sc [9]): buffy coat>serum>plasma

labeled peptide probe: peptide probe specific for Aβ (SEQ ID NO:36) labeled at each terminus with pyrene (pyrene-KLVFFAEDVGSNKGAIIGLM-pyrene)
turn/unordered structure [1]: 54.1%
α helix structure [1]: 18.3%
β strand (sheet) structure [1]: 27.6%

oligomers of Aβ42: sample of oligomers of Aβ42 including dimers, trimers, tetramers, hexamers and 12-mers
turn/unordered structure [1]: 45.4%
β strand (sheet) structure [1]: 52.7%
